In the Human Domainome abundance scans (Beltran et al. 2025):
± gives the uncertainty stated by the source.

B1: Homeobox protein SIX3, residues 212 to 262; numbered along this chain, O95343 (parent)
chain: CFKERTRSLLREWYLQDPYPNPSKKRELAQATGLTPTQVGNWFKNRRQRDR

Variants of: B1
Experiment: abundance fitness (aPCA) (normalised: wild type 0, dead -1); higher = more abundant; growth selection in yeast, the domain comes from the species named
Conditions: Homo sapiens

Row | Variant | abundance fitness
1 | CFKERTRSLLREWYLTDPYPNPSKKRELAQATGLTPTQVGNWFKNRRQRDR [Q16T] | -0.249 ± 0.069
2 | CFKERTRSLLREWYLFDPYPNPSKKRELAQATGLTPTQVGNWFKNRRQRDR [Q16F] | -0.109 ± 0.099
3 | CFKERTRSLLREWYLDDPYPNPSKKRELAQATGLTPTQVGNWFKNRRQRDR [Q16D] | -0.601 ± 0.38
4 | CFKERTRSLLREWYLGDPYPNPSKKRELAQATGLTPTQVGNWFKNRRQRDR [Q16G] | -0.564 ± 0.047
5 | CFKERTRSLLREWYLNDPYPNPSKKRELAQATGLTPTQVGNWFKNRRQRDR [Q16N] | -0.092 ± 0.13
6 | CFKERTRSLLREWYLPDPYPNPSKKRELAQATGLTPTQVGNWFKNRRQRDR [Q16P] | -0.712 ± 0.29
7 | CFKERTRSLLREWYLEDPYPNPSKKRELAQATGLTPTQVGNWFKNRRQRDR [Q16E] | -0.302 ± 0.069
8 | CFKERTRSLLREWYLKDPYPNPSKKRELAQATGLTPTQVGNWFKNRRQRDR [Q16K] | -0.212 ± 0.12
9 | CFKERTRSLLREWYLRDPYPNPSKKRELAQATGLTPTQVGNWFKNRRQRDR [Q16R] | -0.076 ± 0.054
10 | CFKERTRSLLREWYLIDPYPNPSKKRELAQATGLTPTQVGNWFKNRRQRDR [Q16I] | 0.251 ± 0.1
11 | CFKERTRSLLREWYLADPYPNPSKKRELAQATGLTPTQVGNWFKNRRQRDR [Q16A] | -0.106 ± 0.046
12 | CFKERTRSLLREWYLYDPYPNPSKKRELAQATGLTPTQVGNWFKNRRQRDR [Q16Y] | -0.382 ± 0.068
13 | CFKERTRSLLREWYLMDPYPNPSKKRELAQATGLTPTQVGNWFKNRRQRDR [Q16M] | 0.13 ± 0.1
14 | CFKERTRSLLREWYLWDPYPNPSKKRELAQATGLTPTQVGNWFKNRRQRDR [Q16W] | -0.327 ± 0.096
15 | CFKERTRSLLREWYLHDPYPNPSKKRELAQATGLTPTQVGNWFKNRRQRDR [Q16H] | -0.173 ± 0.14
16 | CFKERTRSLLREWYLSDPYPNPSKKRELAQATGLTPTQVGNWFKNRRQRDR [Q16S] | -0.285 ± 0.046
17 | CFKERTRSLLREWYLQDPHPNPSKKRELAQATGLTPTQVGNWFKNRRQRDR [Y19H] | -0.337 ± 0.14
18 | CFKERTRSLLREWYLQDPKPNPSKKRELAQATGLTPTQVGNWFKNRRQRDR [Y19K] | -0.095 ± 0.1
19 | CFKERTRSLLREWYLQDPNPNPSKKRELAQATGLTPTQVGNWFKNRRQRDR [Y19N] | -0.313 ± 0.11
20 | CFKERTRSLLREWYLQDPQPNPSKKRELAQATGLTPTQVGNWFKNRRQRDR [Y19Q] | -0.426 ± 0.088
21 | CFKERTRSLLREWYLQDPLPNPSKKRELAQATGLTPTQVGNWFKNRRQRDR [Y19L] | -0.352 ± 0.058
22 | CFKERTRSLLREWYLQDPGPNPSKKRELAQATGLTPTQVGNWFKNRRQRDR [Y19G] | -0.849 ± 0.07
23 | CFKERTRSLLREWYLQDPCPNPSKKRELAQATGLTPTQVGNWFKNRRQRDR [Y19C] | -0.308 ± 0.082
24 | CFKERTRSLLREWYLQDPEPNPSKKRELAQATGLTPTQVGNWFKNRRQRDR [Y19E] | -0.591 ± 0.14
25 | CFKERTRSLLREWYLQDPAPNPSKKRELAQATGLTPTQVGNWFKNRRQRDR [Y19A] | -0.372 ± 0.081
26 | CFKERTRSLLREWYLQDPMPNPSKKRELAQATGLTPTQVGNWFKNRRQRDR [Y19M] | -0.292 ± 0.11

Row | Variant | abundance fitness
27 | CFKERTRSLLREWYLQDPRPNPSKKRELAQATGLTPTQVGNWFKNRRQRDR [Y19R] | -0.184 ± 0.045
28 | CFKERTRSLLREWYLQDPPPNPSKKRELAQATGLTPTQVGNWFKNRRQRDR [Y19P] | -0.85 ± 0.087
29 | CFKERTRSLLREWYLQDPSPNPSKKRELAQATGLTPTQVGNWFKNRRQRDR [Y19S] | -0.514 ± 0.076
30 | CFKERTRSLLREWYLQDPFPNPSKKRELAQATGLTPTQVGNWFKNRRQRDR [Y19F] | -0.089 ± 0.085
31 | CFKERTRSLLREWYLQDPDPNPSKKRELAQATGLTPTQVGNWFKNRRQRDR [Y19D] | -0.368 ± 0.17
32 | CFKERTRSLLRETYLQDPYPNPSKKRELAQATGLTPTQVGNWFKNRRQRDR [W13T] | -0.066 ± 0.072
33 | CFKERTRSLLRELYLQDPYPNPSKKRELAQATGLTPTQVGNWFKNRRQRDR [W13L] | -0.139 ± 0.076
34 | CFKERTRSLLRESYLQDPYPNPSKKRELAQATGLTPTQVGNWFKNRRQRDR [W13S] | -0.069 ± 0.079
35 | CFKERTRSLLREPYLQDPYPNPSKKRELAQATGLTPTQVGNWFKNRRQRDR [W13P] | -0.747 ± 0.16
36 | CFKERTRSLLREMYLQDPYPNPSKKRELAQATGLTPTQVGNWFKNRRQRDR [W13M] | 0.012 ± 0.091
37 | CFKERTRSLLREVYLQDPYPNPSKKRELAQATGLTPTQVGNWFKNRRQRDR [W13V] | -0.075 ± 0.052
38 | CFKERTRSLLREKYLQDPYPNPSKKRELAQATGLTPTQVGNWFKNRRQRDR [W13K] | -0.399 ± 0.12
39 | CFKERTRSLLRENYLQDPYPNPSKKRELAQATGLTPTQVGNWFKNRRQRDR [W13N] | 0.097 ± 0.081
40 | CFKERTRSLLREYYLQDPYPNPSKKRELAQATGLTPTQVGNWFKNRRQRDR [W13Y] | -0.007 ± 0.056
41 | CFKERTRSLLREIYLQDPYPNPSKKRELAQATGLTPTQVGNWFKNRRQRDR [W13I] | -0.153 ± 0.13
42 | CFKERTRSLLREQYLQDPYPNPSKKRELAQATGLTPTQVGNWFKNRRQRDR [W13Q] | 0.026 ± 0.052
43 | CFKERTRSLLREWMLQDPYPNPSKKRELAQATGLTPTQVGNWFKNRRQRDR [Y14M] | -0.891 ± 0.13
44 | CFKERTRSLLREWTLQDPYPNPSKKRELAQATGLTPTQVGNWFKNRRQRDR [Y14T] | -0.946 ± 0.062
45 | CFKERTRSLLREWQLQDPYPNPSKKRELAQATGLTPTQVGNWFKNRRQRDR [Y14Q] | -0.834 ± 0.17
46 | CFKERTRSLLREWPLQDPYPNPSKKRELAQATGLTPTQVGNWFKNRRQRDR [Y14P] | -0.672 ± 0.13
47 | CFKERTRSLLREWKLQDPYPNPSKKRELAQATGLTPTQVGNWFKNRRQRDR [Y14K] | -0.81 ± 0.14
48 | CFKERTRSLLREWDLQDPYPNPSKKRELAQATGLTPTQVGNWFKNRRQRDR [Y14D] | -1.14 ± 0.31
49 | CFKERTRSLLREWGLQDPYPNPSKKRELAQATGLTPTQVGNWFKNRRQRDR [Y14G] | -0.833 ± 0.057
50 | CFKERTRSLLREWALQDPYPNPSKKRELAQATGLTPTQVGNWFKNRRQRDR [Y14A] | -0.896 ± 0.059
51 | CFKERTRSLLREWWLQDPYPNPSKKRELAQATGLTPTQVGNWFKNRRQRDR [Y14W] | -0.711 ± 0.1
